Measurements published in US20080286275A1 (ISTITUTO DI RICERCHE DI BIOLOGIA MOLECOLARE P ANGELETTI S P …, published 2008).

T1: human scavenger receptor class B type I (SR-B1) (human, UniProt Q8WTV0 1-467)
T1 construct: The same entry is used for all three; also called SR-BI; SR-B1 receptor
T1 sequence: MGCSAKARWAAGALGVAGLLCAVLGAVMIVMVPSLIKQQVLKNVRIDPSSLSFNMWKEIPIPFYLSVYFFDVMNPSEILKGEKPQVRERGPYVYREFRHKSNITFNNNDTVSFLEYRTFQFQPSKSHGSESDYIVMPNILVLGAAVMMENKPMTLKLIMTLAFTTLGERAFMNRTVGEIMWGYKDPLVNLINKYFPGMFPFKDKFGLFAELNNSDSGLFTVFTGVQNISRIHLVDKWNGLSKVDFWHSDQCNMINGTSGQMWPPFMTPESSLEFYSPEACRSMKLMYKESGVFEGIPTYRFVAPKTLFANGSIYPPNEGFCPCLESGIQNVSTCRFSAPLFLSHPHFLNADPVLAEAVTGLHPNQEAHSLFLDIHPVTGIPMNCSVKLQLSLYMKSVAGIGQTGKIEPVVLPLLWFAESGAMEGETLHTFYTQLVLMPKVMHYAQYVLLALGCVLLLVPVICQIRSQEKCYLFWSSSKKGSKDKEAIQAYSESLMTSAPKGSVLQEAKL

B1: IgG4 molecule containing SEQ ID NO: 2 variable regions (antibody, V domains shown)
VH: QVQLQESGPGLVKPSETLSLNCTVSGGSISSSSYYWGWIRQPPGKGLEWIGSVYYTGNTYYNPSLKSRVTMSVDTSKNQFSLKLNSVTAADTAVYYCARHVLGGGWEVSQRFDYWGRGTLVTVSS
VL: not shown
notes: The primers may have added amino acids
B2: IgG4 molecule containing SEQ ID NO: 4 variable regions (antibody, V domains shown)
VH: EVQLVQSGAEVRKPGTAVKISCKVAGDTFTDYFIYWLQQAPGKGPEWMGLIDPKDAQTIYAEKFQGRVAITADTSTDTAYMELSSLKSEDTAVYYCATDSVGSAGFDVWGQGTLVTVSS
VL: LPVLTQPPSASGAPGQRVTFSCSGSGSNIGSYTVNWYQQLPGAAPRLLMHTTDQRASGVPDRFSGSKSGTSASLAITGLQSEDEADYFCAAWDDSLDGPVFGGGTKLTVL
notes: as for B1
B3: single-chain antibody of SEQ ID NO: 1 (scFv)
scFv: EVQLVQSGAEVRKPGATVKISCKLTGDTFTDYFIFWLQLAPGKGLQWMGLIDPKDAQTIYAEKFQGRVAITADTSTDTAYMEVSSLRSEDTAVYYCATDSVGAAGFDVWGRGTMVTVSSGGGGSGGGGSGGGGSALPVLTQPPSASGAPGQRVTFSCSGSGSNIGSYTVNWYQQLPGAAPRLLMHTTDQRASGAPDRFSGSKSGTSASLAITGLQSEDEADYFCAAWDDSLDGPVFGGGTKLTVL
notes: VH-linker(Ser/Gly)-VL from the CAT phage library CS, produced outside the phage context
B4: single-chain antibody of SEQ ID NO: 2 (scFv)
scFv: QVQLQESGPGLVKPSETLSLNCTVSGGSISSSSYYWGWIRQPPGKGLEWIGSVYYTGNTYYNPSLKSRVTMSVDTSKNQFSLKLNSVTAADTAVYYCARHVLGGGWEVSQRFDYWGRGTLVTVSSGGGGSGGGGSGGGGSAQSVLTQPPSASGTPGQRVTISCSGSSSNIGSNPVNWYQQLPGTAPKLLIHTNNQRPSGVPDRFSGSKSGTSASLAISGLLSEDEADYYCAAWDDSLNAYVFGTGTKVTVL
notes: VH-linker(Ser/Gly)-VL from the CAT phage library CS, produced outside the phage context; also called scFVC11
B5: single-chain antibody of SEQ ID NO: 3 (scFv)
scFv: EVQLVETGAEVKKPGSSVKVSCKASGDTLSSHAIIWVRQAPGQGLEWMGGIIPIFRTVNYAQKFQGRVTITADDSTSTAYMELNDLRSEDTAVYYCAKTLNEGLPWDYWGQGTLVTVSSGGGGSGGGGSGGGGSAQSVLTQPPGASGAPGQRVTISCSGDSSNIESYAVNWYQQVPGMAPKLLIYRDNQRPSGVPDRFSGSRSGTSASLAISGLQSEDEADYYCGSWDDNLNGPTFGGGTKVTVL
notes: as for B3
B6: single-chain antibody of SEQ ID NO: 4 (scFv)
scFv: EVQLVQSGAEVRKPGTAVKISCKVAGDTFTDYFIYWLQQAPGKGPEWMGLIDPKDAQTIYAEKFQGRVAITADTSTDTAYMELSSLKSEDTAVYYCATDSVGSAGFDVWGQGTLVTVSSGGGGSGGGGSGGGGSALPVLTQPPSASGAPGQRVTFSCSGSGSNIGSYTVNWYQQLPGAAPRLLMHTTDQRASGVPDRFSGSKSGTSASLAITGLQSEDEADYFCAAWDDSLDGPVFGGGTKLTVL
notes: as for B3

These binders were tested against T1, human scavenger receptor class B type I … (assay: FACS competition on Cho7s cells expressing human SR-B1, IgG concentration varied (60-12-2.4 µg/ml), competitor His-tagged soluble E2).

| Binder | binding result |
| --- | --- |
| B1 | binds |
| B2 | binds |

What follows are binders tested against T1, human scavenger receptor class B type I … (assay: FACS competition on HepG2 cells, scFv concentration varied, competitor soluble E2).

| Binder | binding result |
| --- | --- |
| B3 | binds |
| B4 | binds |
| B5 | binds |
| B6 | binds |
